Results: patent US20250223606

Columns and labels:
[1] = tested on: TALED psaA Right (TALE array-split DddAtox/TadA-derived AD) (synthetic construct); test: cell_activity; conditions: pair with P3; A6 14.66 and 12.27, A5 10.67 and 7.68; lettuce protoplasts 7 days after mRNA
[2] = tested on: TALED psaA Left (TALE array-split DddAtox/TadA-derived AD) (synthetic construct); test: cell_activity; conditions: pair with P4; A6 14.66 and 12.27, A5 10.67 and 7.68; lettuce protoplasts 7 days after mRNA; callus A5 8.4 and 7.5, A6 12.2 and 10.0

lettuce chloroplast psaA start codon, right half-site
activity [1]: 14.7 % editing

lettuce chloroplast psaA start codon, left half-site
activity [2]: 14.7 % editing
